US20130012916A1
Several values for one entry are separate records, joined by “and”; a condition that tells them apart may be missing. Equal values may be shown once.

Legend:
vWF A1-domain [1] = target: vWF A1-domain (UniProt P04275); experiment: SPR (Biacore 3000), vWF A1-domain on CM5 chip, parallel line analysis
vWF A1-domain [2] = target: vWF A1-domain (UniProt P04275); experiment: SPR (Biacore 3000), vWF A1-domain on CM5 chip, parallel line analysis; second of two independent analyses
vWF A1-domain [3] = target: vWF A1-domain (UniProt P04275); experiment: SPR (Biacore 3000), vWF A1-domain on CM5 chip, parallel line analysis; first of two independent analyses

B1: Nanobody ALX0081sv1 (vWF0002) (VHH)
chain: DVQLVESGGGLVQPGGSLRLSCAASGRTFSYNPMGWFRQAPGKGRELVAAISRTGGSTYYPESVEGRFTISRDNAKRTVYLQMNSLRAEDTAVYYCAAAGVRAEQGRVRTLPSEYTFWGQGTQVTVSSAAAEVQLVESGGGLVQPGGSLRLSCAASGRTFSYNPMGWFRQAPGKGRELVAAISRTGGSTYYPESVEGRFTISRDNAKRTVYLQMNSLRAEDTAVYYCAAAGVRAEQGRVRTLPSEYTFWGQGTQVTVSS
relative potency versus reference (non lyophilised, stored at -70 C) (vWF A1-domain [1]): 94.8% and 117% and 93.3% | relative potency versus reference (non lyophilised, stored at -70 C) (vWF A1-domain [2]): 96.1% | relative potency versus reference (non lyophilised, stored at -70 C) (vWF A1-domain [3]): 94.6%
